Test results as given in the supplement of paper PMC10567573.

B1: MCOLN1 (parent)
chain: EEEDLRRRLKYFFMSPCDKFRAKG

Variants of: B1
Assay: protein stability index of a GFP-peptide fusion (GPS, HEK-293T) (PSI 1-6); higher = more stable
Details: c terminus: a fixed tail appended
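Further: lentivirally expressed fusions sorted by FACS into six bins by GFP to DsRed ratio, PSI derived from sequencing read proportions per bin multiplied by bin number.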

Protein stability index, by site and new letter:
R8: W 2.42 | M 2.05 | F 1.42 | Q 3 | Y 1.64 | D 3.11 | H 2.35 | K 2.71 | E 3.21 | I 1.76 | C 1.86 | T 2.42 | A 2 | N 3.29 | S 2.67
L9: N 3.5 | G 3.64 | R 3.35 | S 3.91 | W 2.32 | D 4.1 | F 2.96 | C 3.03 | Y 2.97 | T 3.33 | H 3.32 | M 3.27 | P 3.64 | V 3.15 | Q 3.7 | E 4.4
K10: S 2.3 | E 2.67 | I 1.62 | V 2.32 | Q 2.26 | G 2.58 | D 3.41 | R 2.33 | F 1.82 | N 3.21 | H 2.11 | W 2.1
R6: F 1.59 | M 1.42 | K 1.9 | W 1.8 | T 2.66 | Y 1.64 | Q 3.04 | D 3.28 | I 2 | C 2.85 | N 3.78 | P 2.11 | L 1.76 | A 3.18 | E 3.48
P16: L 1.7 | G 1.92 | D 3.12 | S 2.81 | T 2.68 | Y 2.39 | A 2.12 | I 1.95 | C 1.84 | H 2.09 | R 2.26 | E 1.87 | W 2.19 | Q 1.84 | F 2.2
R21: Q 3.04 | I 2.51 | H 3.28 | P 3.09 | T 3.05 | G 3.01 | D 3.15 | K 2.93 | V 2.56 | S 3.1 | W 1.81 | N 3.01
Y11: C 2.77 | L 2.23 | K 2.65 | S 2.88 | I 1.93 | R 2.38 | T 2.82 | N 3.23 | V 2.93 | H 2.46 | E 3.73 | M 2.79 | F 2.88 | D 2.87 | P 3.33
E3: R 2.15 | G 2.12 | Q 1.5 | I 1.64 | F 2.04 | V 2.83 | W 1.14 | M 1.15 | N 1.91 | S 2.9 | L 1.37 | D 2.41 | T 1.52 | K 1.87 | A 1.62
F20: C 2.9 | T 3.45 | H 2.61 | M 2.77 | V 3.06 | Y 2.28 | N 3.62 | D 3.79 | R 3.04 | L 3.33 | A 3.82 | W 2.21 | G 3.04
D18: N 1.77 | P 1.73 | S 2.18 | H 2.05 | E 1.94 | A 1.91 | C 1.83 | G 2.06 | I 2.49 | M 2.35 | K 1.94 | Q 2.2 | V 2.44
F12: A 3.53 | K 2.98 | E 3.9 | N 4.11 | G 3.43 | Y 2.69 | C 3.27 | M 2.91 | H 2.5 | Q 3.53 | W 2.39 | I 2.93 | V 2.65 | S 3.58
L5: S 2.92 | Y 2.45 | I 1.92 | G 3.05 | P 3.17 | V 3.09 | K 3.2 | C 2.82 | F 3.09 | W 2.91 | E 3.53 | D 3.43 | Q 3.84 | M 2.32 | R 3.72
G24: F 1.8 | L 2.55 | D 2.4 | I 2.37 | N 2.35 | C 1.82 | A 2.43 | T 2.52 | K 3.11 | W 1.33 | Y 1.78 | R 1.73 | M 2.29 | Q 4.48 | H 2.07 | P 2.4
K23: E 2.47 | N 2.56 | Q 2.59 | C 2.43 | G 1.84 | I 2.01 | M 1.33 | D 3.56 | S 2.26 | Y 1.53 | P 2.5
K19: M 2.27 | F 2.21 | N 2.48 | A 2.21 | W 1.69 | P 2.66 | C 2.33 | Q 2.73 | R 1.55 | S 2.4 | I 1.74 | V 2.51 | T 3.01 | H 2.65 | L 2.14
S15: W 2.49 | M 1.94 | D 3.4 | C 1.66 | Q 2.84 | G 2.77 | A 2.42 | T 3.1 | R 2.91 | K 2.63 | H 2.79 | V 2 | N 2.62
R7: S 2.82 | C 2.38 | W 1.91 | A 2.35 | K 2.63 | N 2.55 | M 1.55 | H 2.73 | T 2.65 | Q 2.52 | D 3.01 | P 3.33 | F 2.44 | L 2.29
A22: Q 2.13 | G 2.67 | H 2.52 | N 2.21 | C 1.97 | W 1.36 | K 2.5 | S 2.27 | F 2.29 | M 2.13 | L 1.85
M14: R 2.73 | L 2.14 | K 3.14 | Y 2.23 | Q 3.04 | D 3.23 | F 2.83 | S 2.96 | I 2.87 | G 3.56 | W 3.05 | C 2.24 | A 3.27 | T 2.79 | V 2.66 | P 3.16 | H 2.59
F13: T 3.61 | E 3.74 | Y 3.81 | L 3.2 | N 3.77 | C 3.8 | G 3.78 | S 3.37 | R 3.54 | H 3.75 | A 3.88 | V 3.45 | P 3.97 | W 3 | Q 3.65 | K 3.23
C17: Q 3.58 | N 2.89 | L 2.19 | P 2.9 | V 2.53 | W 2.13 | G 2.69 | M 1.97 | R 1.58 | H 2.61 | E 3.23 | I 2.59 | A 2.21
E1: W 2.2 | F 2.29 | A 2.53 | D 2.96 | N 1.51 | G 2.46 | V 1.51 | Y 2.27 | I 2.19 | S 2.24 | L 2.16 | R 1.36 | M 2.08 | T 3.34 | Q 1.62
D4: C 1.8 | Q 1.57 | T 2.49 | I 1.71 | K 1.83 | G 3.22 | L 2.13 | S 1.42 | P 2.94 | Y 2.18 | H 2.04 | F 1.42 | M 1.48
E2: D 1.92 | A 2.37 | Y 1.94 | W 4.34 | H 2.72 | G 1.67 | N 1.96 | Q 2.27 | R 3.07 | S 1.86
